How the values were obtained:
[1] = tested on: T1, O=[N+]([O-])c1ccc(O[C@@H]2O[C@@H](CO)[C@H](O)[C@H]2O)cc1; experiment: purified protein; type: biochemical, Talaromyces amestolkiae; settings: standard reaction: 50 mM sodium acetate pH 5, 50 °C, 0.1% BSA, substrate 0.0625-16 mM
T1 construct: secreted from Pichia pastoris GS115 (pPIC9), N-glycosylated, about 37 kDa on SDS-PAGE; forward primer encodes LPTDETA after the EcoRI site, reverse primer encodes C-terminal PGLLTHK

[2] = tested on: T2, O=[N+]([O-])c1ccc(O[C@@H]2O[C@@H](CO)[C@H](O)[C@H]2O)cc1; experiment: purified protein; type: biochemical, Talaromyces amestolkiae; settings: standard reaction: 50 mM sodium acetate pH 5, 50 °C, 0.1% BSA, substrate 0.0625-16 mM
T2 construct: mature form without 18-residue signal peptide (54 bp), gene 1223 bp with one intron, 368 residues, 39 kDa, N-terminal CBM1, Ser/Thr-rich linker and GH62 domain; secreted from Pichia pastoris GS115 (pPIC9), N-glycosylated, about 50 kDa on SDS-PAGE; forward primer encodes QASLYGQ after the EcoRI site, reverse primer encodes C-terminal LLTLSK

Sequence of ARA-1 (Talaromyces amestolkiae) (chain, as listed by the source): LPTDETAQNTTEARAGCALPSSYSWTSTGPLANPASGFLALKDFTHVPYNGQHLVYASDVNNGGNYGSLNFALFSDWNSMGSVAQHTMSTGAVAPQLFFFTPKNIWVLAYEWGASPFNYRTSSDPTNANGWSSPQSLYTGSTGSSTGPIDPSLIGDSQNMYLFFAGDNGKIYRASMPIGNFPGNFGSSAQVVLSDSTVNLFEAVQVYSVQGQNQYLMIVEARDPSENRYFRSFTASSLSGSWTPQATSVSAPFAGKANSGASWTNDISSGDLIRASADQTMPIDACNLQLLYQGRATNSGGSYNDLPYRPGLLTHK
Sequence of ARA-2 (Talaromyces amestolkiae) (chain, as listed by the source): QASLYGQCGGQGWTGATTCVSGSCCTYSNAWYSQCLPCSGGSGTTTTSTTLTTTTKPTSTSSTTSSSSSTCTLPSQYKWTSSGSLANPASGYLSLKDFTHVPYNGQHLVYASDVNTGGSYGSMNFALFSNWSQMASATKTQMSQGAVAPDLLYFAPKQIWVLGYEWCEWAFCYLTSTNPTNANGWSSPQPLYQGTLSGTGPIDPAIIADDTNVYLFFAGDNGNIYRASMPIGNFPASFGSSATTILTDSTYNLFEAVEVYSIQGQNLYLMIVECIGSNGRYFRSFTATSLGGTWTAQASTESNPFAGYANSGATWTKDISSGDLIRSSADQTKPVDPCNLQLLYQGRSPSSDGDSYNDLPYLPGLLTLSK

| Substance | Km [1] [mM] | kcat [1] [s⁻¹] | kcat/Km [1] [M⁻¹ s⁻¹] | Km [2] [mM] | kcat [2] [s⁻¹] | kcat/Km [2] [M⁻¹ s⁻¹] |
| --- | --- | --- | --- | --- | --- | --- |
| ARA-1 (Talaromyces amestolkiae) | 8.97 ± 0.06 | 0.05 ± 0.001 | 5 ± 0.4 | – | – | – |
| ARA-2 (Talaromyces amestolkiae) | – | – | – | 1.48 ± 0.08 | 0.41 ± 0.01 | 280 ± 10 |

Source: PMC10418624, “Expression and Characterization of Two α-L-Arabinofuranosidases from Talaromyces amestolkiae: Role of These Enzymes in Biomass Valorization” (International Journal of Molecular Sciences, 2023)
